In US7572434B2, “Method for assessing the effect of a drug on long term memory formation” (Cold Spring Harbor Laboratory, priority 1994, dated 2009):
Where a chain is given by its changes, count along the chain named.

Assays:
[1] = target: T1, dCREB2-a (UniProt Q9VWW0); assay: cell_activity; conditions: F9 cells; dCREB2-a plus PKA relative to PKA alone
T1 sequence: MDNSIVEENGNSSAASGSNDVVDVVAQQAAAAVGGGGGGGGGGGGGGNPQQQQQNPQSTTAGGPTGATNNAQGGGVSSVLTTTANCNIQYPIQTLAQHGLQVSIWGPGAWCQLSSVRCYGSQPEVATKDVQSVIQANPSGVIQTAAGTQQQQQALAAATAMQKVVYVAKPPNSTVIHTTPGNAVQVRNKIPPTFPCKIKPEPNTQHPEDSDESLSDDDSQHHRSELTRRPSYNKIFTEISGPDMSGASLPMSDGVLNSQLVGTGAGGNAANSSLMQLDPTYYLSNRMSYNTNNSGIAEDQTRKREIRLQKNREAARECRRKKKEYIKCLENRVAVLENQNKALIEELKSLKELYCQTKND

[2] = tested on: PKA-responsive transcription (CRE-directed reporter) in F9 cells; assay: PKA-responsive transcription from the CRE-containing D(-71) CAT reporter in transiently transfected F9 cells; type: cell-based; conditions: cotransfected with dCREB2-a, PKA and reporter
Experimental: Undifferentiated F9 cells were maintained and transfected using the calcium phosphate method as described in Darrow, A. L. et al., “Maintenance and Use of F9 Teratocarcinoma Cells”, In Meth. Enzymol., v. 190 (1990), except that chloroquine was added to […] immediately before transfection and precipitates were washed off ten hours after transfection, at which time the dishes received fresh chloroquine-free medium. Amounts of DNA in transfections were made equivalent by adding RSV-0 where required. Cells were harvested 30 hours after transfection. Extracts were made by three cycles of freeze/thawing, with brief vortexing between cycles. Particulate matter was cleared from extracts by ten minutes of centrifugation in the cold. β-galactosidase assays were performed as described in Miller, J. H., Experiments in Molecular Genetics, Cold Spring Harbor Laboratory, Cold Spring Harbor, N.Y., 1972. CAT assays were performed as described in Sheen, J. Y. and B. Seed, Gene, 67: 271-277 (1988) using aliquots of extract heat-treated at 65° C. for ten minutes and centrifuged for ten minutes to remove debris. Results reported are from three experiments run on different days with at least three dishes per condition within each experiment. Error bars represent standard error of the mean, with error propagation taken into account (Grossman, M. and H. W. Norton, J. Hered., 71: 295-297 (1980)).
F9 cells were transiently transfected with 10 μg of D(−71) CAT plasmid as a CRE-directed reporter. 5 μg of RSV-βgal reporter was included in each dish as a normalization control for transfection efficiency. Different groups received 8 μg of dCREB2-a expression vector and 4 μg of PKA expression vector, separately or in combination. Results are expressed as CAT/Pgal enzyme activity ratios, standardized to values obtained with PKA-transfected dishes. […]
Two different dCREB2 isoforms, dCREB2-a and dCREB2-b, have opposite roles in PKA-responsive transcription. […] CREB-dependent changes in gene expression were measured using a cotransfected construct that has a CRE-containing promoter fused to a reporter gene.

Work on “D(-71) CAT rat somatostatin promoter CRE fragment” yielded an activity [1] of 5.4 fold.

B1: dCREB2-b: Drosophila dCREB2 isoform lacking exons 2 and 6, antagonist of dCREB2-a, expressed from RSV-dCREB2-b (protein)
chain: MDNSIVEENGNSSAASGSNDVVDVVAQQAAAAVGGGGGGGGGGGGGNPQQQQQNPQSTTAGGPTGATNNAQGGGVSSVLTTTANCNIQYPIQTLAQHGLQVQSVIQANPSGVIQTAAGTQQQQQALAAATAMQKVVYVAKPPNSTVIHTTPGNAVQIPPTFPCKIKPEPNTQHPEDSDESLSDDDSQHHRSELTRRPSYNKIFTEISGPDMSDNSGIAEDQTRKREIRLQKNREAARECRRKKKEYIKCLENRVAVLENQNKALIEELKSLKELYCQTKND
With B1 the “effect on PKA-dependent activation by dCREB2-a” value [2] was “nearly complete block”.

B2: mLZ-dCREB2-b: leucine-zipper mutant of dCREB2-b; middle two leucines converted to valines (protein)
chain: B1 chain with L257V, L264V
With B2 the “effect on PKA-dependent activation by dCREB2-a” value [2] was “failed to block”.
